The results in this text go back to the RNAGym collection of RNA variant scans (doi:10.7554/elife.90254).

The chains are these.
B1: LINE1-mini (parent)
chain: GGCAGAGCUCAACACAGCGUGGCAAAGUGGCUGUGGCUAGACUGCC

The data set covers variants of B1. Kind of data set: self-cleavage, relative activity (ratio to wild type); higher = more cleavage; in vitro, sequencing; the parent is a self-cleaving ribozyme.
Consider GGGAGAGCUCAACACAGCGUGGCAAAGUGGCUGUGGCUUGACUGCC [C3G A39U], for which the self-cleavage worked out at 0.27.
The result for GGGAUAGCUCAACACAGCGUGGCAAAGUGGCUGUGGCUAGACUGCC [C3G G5U] reads 0.11; that for GGGAAAGCUCAACACAGCGUGGCAAAGUGGCUGUGGCUAGACUGCC [C3G G5A], 0.68.
In the case of GGGACAGCUCAACACAGCGUGGCAAAGUGGCUGUGGCUAGACUGCC [C3G G5C], the self-cleavage came to 0.58.
The result for GGGAGAGCUCGACACAGCGUGGCAAAGUGGCUGUGGCUAGACUGCC [C3G A11G] reads 0.09.
The same measure for GGGAGAGCUCUACACAGCGUGGCAAAGUGGCUGUGGCUAGACUGCC [C3G A11U]: 0.03.
The same measure for GGGAGAGCUCCACACAGCGUGGCAAAGUGGCUGUGGCUAGACUGCC [C3G A11C]: 0.04; for GGAAGAGCUCAACACAGCGUGGCAAAGUUGCUGUGGCUAGACUGCC [C3A G29U]: 0.71.
As to GGGAGAACUCAACACAGCGUGGCAAAGUGGCUGUGGCUAGACUGCC [C3G G7A], the self-cleavage came out at 0.49.
The same measure for GGGAGACCUCAACACAGCGUGGCAAAGUGGCUGUGGCUAGACUGCC [C3G G7C]: 0.05; for GGGAGAGCUCAACACAGCGUGGCAAAGUGGCUGUGGCUAGACUGCG [C3G C46G]: 0.35; for GGGAGAGCUCAACACAGCGUGGCAAAGUGGCUGUGGCUAGACUGCA [C3G C46A]: 0.36.
The same measure for GGGAGAGCUCAACACAGCGUGGCAAAGUGGCUGUGGCUAGACUGCU [C3G C46U]: 0.17; for GGGAGAGCUCAACACAGCGUGGCAAAGUGGCUGUGGGUAGACUGCC [C3G C37G]: 0.13; for GGGAGAGCUCAACACAGCGUGGCAAAGUGGCUGUGGUUAGACUGCC [C3G C37U]: 0.5.
On to GGGAGAGCUCAACACAGCGUGGCAAAGUGGCUGUGGAUAGACUGCC [C3G C37A], for which the self-cleavage came to 0.29.
The result for GGGAGGGCUCAACACAGCGUGGCAAAGUGGCUGUGGCUAGACUGCC [C3G A6G] reads 0.08; that for GGGAGUGCUCAACACAGCGUGGCAAAGUGGCUGUGGCUAGACUGCC [C3G A6U], 0.79; that for GGGAGCGCUCAACACAGCGUGGCAAAGUGGCUGUGGCUAGACUGCC [C3G A6C], 0.27.
The result for GGAAGAGCUCAACACAGCGUGGCAAAGUGGCUGUGGCUAGACUACC [C3A G44A] reads 0.91; that for GGAAGAGCUCAACACAGCGUGGCAAAGUGGCUGUGGCUAGACUCCC [C3A G44C], 0.86; that for GGAAGAGCUCAACACAGCGUGGCAAAGUGGCUGUGGCUAGACUUCC [C3A G44U], 2.11.
The same measure for GGAAGAGCUCAACACAGCGUGGCAAAGUGGCAGUGGCUAGACUGCC [C3A U32A]: 0.12; for GGAAGAGCUCAACACAGCGUGGCAAAGUGGCCGUGGCUAGACUGCC [C3A U32C]: 0.31; for GGAAGAGCUCAACACAGCGUGGCAAAGUGGCGGUGGCUAGACUGCC [C3A U32G]: 0.15.
Take GGAAGAGCUCAACACAGCGUGGCAAAGUGGCUGUGGCGAGACUGCC [C3A U38G]: the self-cleavage is 0.51.
The result for GGAAGAGCUCAACACAGCGUGGCAAAGUGGCUGUGGCCAGACUGCC [C3A U38C] reads 0.26; that for GGAAGAGCUCAACACAGCGUGGCAAAGUGGCUGUGGCAAGACUGCC [C3A U38A], 0.34; that for GGAAGAGCUCAACACAGCGUGGCAAAGUGGCUGUGGCUAUACUGCC [C3A G40U], 0.21.
The result for GGAAGAGCUCAACACAGCGUGGCAAAGUGGCUGUGGCUAAACUGCC [C3A G40A] reads 0.16; that for GGAAGAGCUCAACACAGCGUGGCAAAGUGGCUGUGGCUACACUGCC [C3A G40C], 0.19.
With GGGAGAGCUCAACACAGCGUGGCAAAGUGGCUGUGGCUAGGCUGCC [C3G A41G], the self-cleavage worked out at 0.09.
The same measure for GGGAGAGCUCAACACAGCGUGGCAAAGUGGCUGUGGCUAGUCUGCC [C3G A41U]: 0.29; for GGGAGAGCUCAACACAGCGUGGCAAAGUGGCUGUGGCUAGCCUGCC [C3G A41C]: 0.1; for GGGAGAGCUCAACAAAGCGUGGCAAAGUGGCUGUGGCUAGACUGCC [C3G C15A]: 0.18.
The same measure for GGGAGAGCUCAACAUAGCGUGGCAAAGUGGCUGUGGCUAGACUGCC [C3G C15U]: 0.25; for GGGAGAGCUCAACAGAGCGUGGCAAAGUGGCUGUGGCUAGACUGCC [C3G C15G]: 0.04.
The same measure for GGAAGAGCUCAACACAGCGUGGCAAAGGGGCUGUGGCUAGACUGCC [C3A U28G]: 0.42; for GGAAGAGCUCAACACAGCGUGGCAAAGAGGCUGUGGCUAGACUGCC [C3A U28A]: 0.32; for GGAAGAGCUCAACACAGCGUGGCAAAGCGGCUGUGGCUAGACUGCC [C3A U28C]: 0.32.
Turning to GGGAGAGCUCAACACAGCGUGGCAAAGUGGCUGUGGCUAGACUGCC [C3G], the self-cleavage amounted to 0.48.
The result for GGAAGAGCUCAACACAGCGGGGCAAAGUGGCUGUGGCUAGACUGCC [C3A U20G] reads 0.31; that for GGAAGAGCUCAACACAGCGAGGCAAAGUGGCUGUGGCUAGACUGCC [C3A U20A], 0.38.
The result for GGAAGAGCUCAACACAGCGCGGCAAAGUGGCUGUGGCUAGACUGCC [C3A U20C] reads 0.19; that for GGGAGAGCUCAAGACAGCGUGGCAAAGUGGCUGUGGCUAGACUGCC [C3G C13G], 0.55.
The same measure for GGGAGAGCUCAAAACAGCGUGGCAAAGUGGCUGUGGCUAGACUGCC [C3G C13A]: 0.48; for GGGAGAGCUCAAUACAGCGUGGCAAAGUGGCUGUGGCUAGACUGCC [C3G C13U]: 0.37.
For the variant GGGUGAGCUCAACACAGCGUGGCAAAGUGGCUGUGGCUAGACUGCC [C3G A4U], the self-cleavage was determined as 0.36.
The result for GGGGGAGCUCAACACAGCGUGGCAAAGUGGCUGUGGCUAGACUGCC [C3G A4G] reads 0.2.
As to GGGCGAGCUCAACACAGCGUGGCAAAGUGGCUGUGGCUAGACUGCC [C3G A4C], the self-cleavage amounted to 0.11.
The same measure for GGAAGAGCUCAACACAGCGUGGCAAAGUGGCUGUUGCUAGACUGCC [C3A G35U]: 0.59; for GGAAGAGCUCAACACAGCGUGGCAAAGUGGCUGUCGCUAGACUGCC [C3A G35C]: 0.18; for GGAAGAGCUCAACACAGCGUGGCAAAGUGGCUGUAGCUAGACUGCC [C3A G35A]: 0.35.
Consider GGGAGAGCUCAACACAGCGUGGCAACGUGGCUGUGGCUAGACUGCC [C3G A26C], for which the self-cleavage amounted to 0.37.
The result for GGGAGAGCUCAACACAGCGUGGCAAGGUGGCUGUGGCUAGACUGCC [C3G A26G] reads 0.36.
The same measure for GGGAGAGCUCAACACAGCGUGGCAAUGUGGCUGUGGCUAGACUGCC [C3G A26U]: 0.56.
